Data: US20180362652A1 (Biogen, published 2018)

Columns and labels:
[1] = biological target: T1, human BDCA2 (full-length, cell surface) (human, UniProt Q8WTT0 1-213); assay: FACS
T1 construct: also called huBDCA2; surface human BDCA2
T1 sequence: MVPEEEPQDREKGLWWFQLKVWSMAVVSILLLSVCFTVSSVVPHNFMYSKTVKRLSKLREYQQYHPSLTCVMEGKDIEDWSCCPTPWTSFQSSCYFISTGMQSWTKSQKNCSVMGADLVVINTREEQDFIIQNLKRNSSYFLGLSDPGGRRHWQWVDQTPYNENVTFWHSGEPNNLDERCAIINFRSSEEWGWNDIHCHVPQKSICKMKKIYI

[2] = biological target: T2, cynomolgus monkey BDCA2 (full-length, cell surface, E73 SNP form) (cynomolgus monkey, UniProt Q8WTT0 1-213 (human entry)); assay: FACS
T2 construct: also called cyno BDCA2; surface cynomolgus monkey BDCA2
T2 chain: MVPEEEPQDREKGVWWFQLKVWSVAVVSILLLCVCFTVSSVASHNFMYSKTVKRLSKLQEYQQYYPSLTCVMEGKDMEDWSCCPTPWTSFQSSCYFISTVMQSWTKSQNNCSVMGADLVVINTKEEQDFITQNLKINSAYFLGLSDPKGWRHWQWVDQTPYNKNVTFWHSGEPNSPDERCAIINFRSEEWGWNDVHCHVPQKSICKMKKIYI

[3] = biological target: T2, cynomolgus monkey BDCA2 (full-length, …); assay: cell-based or functional assay
[4] = biological target: T3, rat Clec4b2 (full-length, cell surface) (rat); assay: dilution titration direct FACS on transiently transfected 293E cells
T3 construct: 293E cells co-transfected with rat FcεRIγ; Genbank NM_001005896; also called surface rat Clec4b2; closest rat homolog of human BDCA2
T3 chain: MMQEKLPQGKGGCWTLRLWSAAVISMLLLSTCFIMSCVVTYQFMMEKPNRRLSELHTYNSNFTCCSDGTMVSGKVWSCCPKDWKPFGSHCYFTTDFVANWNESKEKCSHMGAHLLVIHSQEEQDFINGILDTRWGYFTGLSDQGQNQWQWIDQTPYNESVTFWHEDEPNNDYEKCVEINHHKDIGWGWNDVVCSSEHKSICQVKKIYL

[5] = biological target: T2, cynomolgus monkey BDCA2 (full-length, …); assay: flow cytometry, whole blood pDCs of cynomolgus monkey donor 2, anti-human IgG PE secondary
Protocol: (§1) The MFI of PE was calculated in FlowJo software, and the percent of maximal binding, using the 40 μg/mL point as 100%, was computed. Each line represents one individual cynomolgus monkey, for a total of twelve cynomolgus monkeys, and graphed using GraphPad Prism software (four-parameter nonlinear regression curve fit of log-transformed data). Staining was repeated once a week for three weeks total.
(§2) The maximal values were taken from the values at the plateau in each assay (FIGS. 24 and 25).
(§3) MFI of PE was calculated with FlowJo software, and EC50 curves were generated in GraphPad Prism software.

[6] = biological target: T2, cynomolgus monkey BDCA2 (full-length, …); assay: flow cytometry, whole blood pDCs of cynomolgus monkey donor 6, anti-human IgG PE secondary
Protocol: as §1, §2, §3

[7] = biological target: T2, cynomolgus monkey BDCA2 (full-length, …); assay: flow cytometry, whole blood pDCs of cynomolgus monkey donor 9, anti-human IgG PE secondary
Protocol: as §1, §2, §3

[8] = biological target: the molecule itself; assay: AlphaScreen self-association assay: glutathione donor and acceptor beads carrying human FcRIIa (CD32a) GST; a signal needs antibody on both beads to associate with itself
Protocol: The AlphaScreen assay is a homogeneous proximity assay utilizing glutathione donor and acceptor beads (Perkin Elmer) to bind human FcRIIa (CD32a) GST. Various concentrations of the antibodies to be tested were added in this mixture. […] The level of emission detected by the Envision (Perkin Elmer) instrument is proportional to the degree of self-association.

B1: BIIB059 (antibody, human IgG1, kappa)
heavy: not shown
light: DIQLTQSPSSLSASVGDRVTITCKASQSVDYDGDSYMNWYQQKPGKAPKLLIYAASTLESGVPSRFSGSGSGTDFTLTISSLQPEDFATYYCQQANEDPRTFGQGTKVEIKRTVAAPSVFIFPPSDEQLKSGTASVVCLLNNFYPREAKVQWKVDNALQSGNSQESVTEQDSKDSTYSLSSTLTLSKADYEKHKVYACEVTHQGLSSPVTKSFNRGEC
notes: Humanized IgG1 kappa, mature chains; in some assays labelled with Alexa647; also called hu24F4 H4/L1 C95A; H4-L1-C95A (YL751/YL746)
Question: Which results are given for B1?
Answer: EC50 [1]: 7 nM; EC50 [2]: 7 nM; EC50 of BDCA2 internalization on pDCs (cynomolgus monkey 3, IV 10 mg/kg) [3]: 0.15 µg/mL; EC50 of BDCA2 internalization on pDCs (cynomolgus monkey 4, SC 0.2 mg/kg) [3]: 0.088 µg/mL; EC50 of BDCA2 internalization on pDCs (cynomolgus monkey 5, IV 1 mg/kg) [3]: 0.087 µg/mL; EC50 of BDCA2 internalization on pDCs (cynomolgus monkey 6, IV 1 mg/kg) [3]: 0.025 µg/mL; EC50 of BDCA2 internalization on pDCs (cynomolgus monkey 6, SC 0.2 mg/kg) [3]: 0.046 µg/mL; EC50 of BDCA2 internalization on pDCs (cynomolgus monkey 7, IV 1 mg/kg) [3]: 0.09 µg/mL; EC50 of BDCA2 internalization on pDCs (cynomolgus monkey 8, IV 10 mg/kg) [3]: 0.37 µg/mL; EC50 of BDCA2 internalization on pDCs (cynomolgus monkey 10, IV 10 mg/kg) [3]: 0.126 µg/mL; EC50 of BDCA2 internalization on pDCs (cynomolgus monkey 12, SC 0.2 mg/kg) [3]: 0.121 µg/mL; EC50 of BDCA2 internalization on pDCs (mean of the cynomolgus monkeys) [3]: 0.123 µg/mL; binding result [4]: no binding; EC50 [5]: 1 µg/mL; EC50 [6]: 1.3 µg/mL; EC50 [7]: 1.4 µg/mL; binding result [8]: no binding (tested: 250 µg/ml)
